Results reported in article doi:10.1101/2021.08.24.457465.
Like-named read-outs stand apart in the source and are kept apart here.

T1: ToPif1 (wild type) (Thermus oshimai, UniProt K7RJ88 64-507)
T1 sequence: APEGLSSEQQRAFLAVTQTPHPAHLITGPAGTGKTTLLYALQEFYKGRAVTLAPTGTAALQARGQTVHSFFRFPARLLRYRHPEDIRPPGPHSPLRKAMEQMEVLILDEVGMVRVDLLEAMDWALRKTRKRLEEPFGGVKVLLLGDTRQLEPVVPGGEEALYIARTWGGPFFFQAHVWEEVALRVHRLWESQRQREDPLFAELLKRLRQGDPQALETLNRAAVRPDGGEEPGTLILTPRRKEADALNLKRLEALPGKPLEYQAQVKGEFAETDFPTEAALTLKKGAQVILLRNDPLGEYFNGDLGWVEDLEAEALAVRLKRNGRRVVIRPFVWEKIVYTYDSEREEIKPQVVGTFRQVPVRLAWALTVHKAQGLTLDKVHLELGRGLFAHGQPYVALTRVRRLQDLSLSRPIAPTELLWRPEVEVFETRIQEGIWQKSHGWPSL

T2: ToPif1 (wild type), crystal (Thermus oshimai, UniProt K7RJ88 64-507)
T2 sequence: T1 sequence


Legend:
ToPif1 (wild type) [1] = target: T1, ToPif1 (wild type); assay: fluorescence anisotropy
ToPif1 (wild type) [2] = target: T1, ToPif1 (wild type); assay: fluorescence anisotropy; remark: listed apart in the source
ToPif1 (wild type) [3] = target: T1, ToPif1 (wild type); assay: fluorescence anisotropy; remark: listed apart in the source
[4] = target: T2, ToPif1 (wild type), crystal; assay: X-ray crystallography
ToPif1 (wild type) [5] = target: T1, ToPif1 (wild type); assay: fluorescence anisotropy; remark: listed apart in the source

Binder | Kd (ToPif1 (wild type) [1]) [nM] | Kd (ToPif1 (wild type) [2]) [nM] | Kd (ToPif1 (wild type) [3]) [nM] | binding result [4] | Kd (ToPif1 (wild type) [5]) [nM]
GGGTTAGGGTTAGGGTTAGGG (structured_DNA) [G4Tel] | ~29.6 |  |  |  | 
TTTTTTTTTTTT (ssDNA) [T12] | ~29.1 | 26.5 ± 0.71 | 29.1 ± 0.53 |  | 
TTTTTTGGGTGGGTGGGTGGGTTTTTTTT (structured_DNA) [G4T6/T8] |  |  |  | binds | 
AGGGTGGGTGGGTGGG (structured_DNA) [G4CEB] | ~23.3 |  | 30.3 ± 1.17 |  | 30.9 ± 2.32
